Patent US20250313634A1 (WUXI BIOLOGICS SHANGHAI, published 2025)

What was measured:
Experiment in all cases: capture ELISA on coated 1.14.4; relative to silent alanine substitutions
[1] = biological target: T1, hPD-L1_ECD.His point mutant T22A (human, UniProt Q9NZQ7 19-238)
T1 construct: extracellular domain
Protocol: (§1) After interacting with the supernatant that contains quantified PD-L1 mutant or human/mouse PD-L1_ECD.His protein (Sino Biological, China), HRP conjugated anti-His antibody (1:5000; Rockland Immunochemicals, Pottstown, PA) was added as detection antibody. Absorbance was normalized according to the average of control mutants. After setting an additional cutoff to the binding fold change (<0.55), the final determined epitope residues were identified.
(§2) The observed binding reductions most probably resulted from the instability or even collapse of hPD-L1 structure after alanine substitutions. After setting an additional cutoff to the binding fold change (<0.55), the final determined epitope residues were listed in Table 3.

[2] = biological target: T2, hPD-L1_ECD.His point mutant R186A (human, UniProt Q9NZQ7 19-238)
T2 construct: extracellular domain
Protocol: as §1, §2

[3] = biological target: T3, hPD-L1_ECD.His point mutant R82A (human, UniProt Q9NZQ7 19-238)
T3 construct: extracellular domain
Protocol: as §1, §2

[4] = biological target: T4, hPD-L1_ECD.His point mutant K46A (human, UniProt Q9NZQ7 19-238)
T4 construct: extracellular domain
Protocol: as §1, §2

[5] = biological target: T5, hPD-L1_ECD.His point mutant G33A (human, UniProt Q9NZQ7 19-238)
T5 construct: extracellular domain
Protocol: as §1, §2

[6] = biological target: T6, hPD-L1_ECD.His point mutant M59A (human, UniProt Q9NZQ7 19-238)
T6 construct: extracellular domain
Protocol: as §1, §2

[7] = biological target: T7, hPD-L1_ECD.His point mutant K124A (human, UniProt Q9NZQ7 19-238)
T7 construct: extracellular domain
Protocol: as §1, §2

[8] = biological target: T8, hPD-L1_ECD.His point mutant R113A (human, UniProt Q9NZQ7 19-238)
T8 construct: extracellular domain
Protocol: as §1, §2

[9] = biological target: T9, hPD-L1_ECD.His point mutant I64A (human, UniProt Q9NZQ7 19-238)
T9 construct: extracellular domain
Protocol: as §1, §2

[10] = biological target: T10, hPD-L1_ECD.His point mutant D61A (human, UniProt Q9NZQ7 19-238)
T10 construct: extracellular domain
Protocol: as §1, §2

[11] = biological target: T11, hPD-L1_ECD.His point mutant L27A (human, UniProt Q9NZQ7 19-238)
T11 construct: extracellular domain
Protocol: as §1, §2

[12] = biological target: T12, hPD-L1_ECD.His point mutant V23A (human, UniProt Q9NZQ7 19-238)
T12 construct: extracellular domain
Protocol: as §1, §2

[13] = biological target: T13, hPD-L1_ECD.His point mutant Q100A (human, UniProt Q9NZQ7 19-238)
T13 construct: extracellular domain
Protocol: as §1, §2

[14] = biological target: T14, hPD-L1_ECD.His point mutant G95A (human, UniProt Q9NZQ7 19-238)
T14 construct: extracellular domain
Protocol: as §1, §2

[15] = biological target: T15, hPD-L1_ECD.His point mutant A98G (human, UniProt Q9NZQ7 19-238)
T15 construct: extracellular domain
Protocol: as §1, §2

[16] = biological target: T16, hPD-L1_ECD.His point mutant T154A (human, UniProt Q9NZQ7 19-238)
T16 construct: extracellular domain
Protocol: as §1, §2

[17] = biological target: T17, hPD-L1_ECD.His point mutant D90A (human, UniProt Q9NZQ7 19-238)
T17 construct: extracellular domain
Protocol: as §1, §2

[18] = biological target: T18, hPD-L1_ECD.His point mutant Y81A (human, UniProt Q9NZQ7 19-238)
T18 construct: extracellular domain
Protocol: as §1, §2

[19] = biological target: T19, hPD-L1_ECD.His point mutant L88A (human, UniProt Q9NZQ7 19-238)
T19 construct: extracellular domain
Protocol: as §1, §2

[20] = biological target: T20, hPD-L1_ECD.His point mutant L175A (human, UniProt Q9NZQ7 19-238)
T20 construct: extracellular domain
Protocol: as §1, §2

[21] = biological target: T21, hPD-L1_ECD.His point mutant Y56A (human, UniProt Q9NZQ7 19-238)
T21 construct: extracellular domain
Protocol: as §1, §2

[22] = biological target: T22, hPD-L1_ECD.His point mutant S79A (human, UniProt Q9NZQ7 19-238)
T22 construct: extracellular domain
Protocol: as §1, §2

[23] = biological target: T23, hPD-L1_ECD.His point mutant E72A (human, UniProt Q9NZQ7 19-238)
T23 construct: extracellular domain
Protocol: as §1, §2

[24] = biological target: T24, hPD-L1_ECD.His point mutant K162A (human, UniProt Q9NZQ7 19-238)
T24 construct: extracellular domain
Protocol: as §1, §2

[25] = biological target: T25, hPD-L1_ECD.His point mutant V44A (human, UniProt Q9NZQ7 19-238)
T25 construct: extracellular domain
Protocol: as §1, §2

[26] = biological target: T26, hPD-L1_ECD.His point mutant D122A (human, UniProt Q9NZQ7 19-238)
T26 construct: extracellular domain
Protocol: as §1, §2

T26 sequence (Q9NZQ7 19-238 D122A): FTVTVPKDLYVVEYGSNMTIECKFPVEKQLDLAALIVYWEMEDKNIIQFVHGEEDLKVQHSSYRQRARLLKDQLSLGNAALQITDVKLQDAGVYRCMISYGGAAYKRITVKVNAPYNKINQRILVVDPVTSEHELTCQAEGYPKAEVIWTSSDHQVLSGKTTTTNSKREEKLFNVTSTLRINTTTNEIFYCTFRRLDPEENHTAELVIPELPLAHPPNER
T24 sequence (Q9NZQ7 19-238 K162A): as the sequence (Q9NZQ7 19-238 D122A) above, with A104D, K144A counted along it
T13 sequence (Q9NZQ7 19-238 Q100A): as the sequence (Q9NZQ7 19-238 D122A) above, with Q82A, A104D counted along it
T16 sequence (Q9NZQ7 19-238 T154A): as the sequence (Q9NZQ7 19-238 D122A) above, with A104D, T136A counted along it
T23 sequence (Q9NZQ7 19-238 E72A): as the sequence (Q9NZQ7 19-238 D122A) above, with E54A, A104D counted along it
T2 sequence (Q9NZQ7 19-238 R186A): as the sequence (Q9NZQ7 19-238 D122A) above, with A104D, R168A counted along it
T7 sequence (Q9NZQ7 19-238 K124A): as the sequence (Q9NZQ7 19-238 D122A) above, with A104D, K106A counted along it
T3 sequence (Q9NZQ7 19-238 R82A): as the sequence (Q9NZQ7 19-238 D122A) above, with R64A, A104D counted along it
T8 sequence (Q9NZQ7 19-238 R113A): as the sequence (Q9NZQ7 19-238 D122A) above, with R95A, A104D counted along it
T10 sequence (Q9NZQ7 19-238 D61A): as the sequence (Q9NZQ7 19-238 D122A) above, with D43A, A104D counted along it
T22 sequence (Q9NZQ7 19-238 S79A): as the sequence (Q9NZQ7 19-238 D122A) above, with S61A, A104D counted along it
T5 sequence (Q9NZQ7 19-238 G33A): as the sequence (Q9NZQ7 19-238 D122A) above, with G15A, A104D counted along it
T20 sequence (Q9NZQ7 19-238 L175A): as the sequence (Q9NZQ7 19-238 D122A) above, with A104D, L157A counted along it
T4 sequence (Q9NZQ7 19-238 K46A): as the sequence (Q9NZQ7 19-238 D122A) above, with K28A, A104D counted along it
T18 sequence (Q9NZQ7 19-238 Y81A): as the sequence (Q9NZQ7 19-238 D122A) above, with Y63A, A104D counted along it
T19 sequence (Q9NZQ7 19-238 L88A): as the sequence (Q9NZQ7 19-238 D122A) above, with L70A, A104D counted along it
T15 sequence (Q9NZQ7 19-238 A98G): as the sequence (Q9NZQ7 19-238 D122A) above, with A80G, A104D counted along it
T17 sequence (Q9NZQ7 19-238 D90A): as the sequence (Q9NZQ7 19-238 D122A) above, with D72A, A104D counted along it
T12 sequence (Q9NZQ7 19-238 V23A): as the sequence (Q9NZQ7 19-238 D122A) above, with V5A, A104D counted along it
T21 sequence (Q9NZQ7 19-238 Y56A): as the sequence (Q9NZQ7 19-238 D122A) above, with Y38A, A104D counted along it
T25 sequence (Q9NZQ7 19-238 V44A): as the sequence (Q9NZQ7 19-238 D122A) above, with V26A, A104D counted along it
T9 sequence (Q9NZQ7 19-238 I64A): as the sequence (Q9NZQ7 19-238 D122A) above, with I46A, A104D counted along it
T1 sequence (Q9NZQ7 19-238 T22A): as the sequence (Q9NZQ7 19-238 D122A) above, with T4A, A104D counted along it
T6 sequence (Q9NZQ7 19-238 M59A): as the sequence (Q9NZQ7 19-238 D122A) above, with M41A, A104D counted along it
T11 sequence (Q9NZQ7 19-238 L27A): as the sequence (Q9NZQ7 19-238 D122A) above, with L9A, A104D counted along it
T14 sequence (Q9NZQ7 19-238 G95A): as the sequence (Q9NZQ7 19-238 D122A) above, with G77A, A104D counted along it

B1: 1.14.4 (antibody, V domains shown)
VH: EVQLLESGGGLVQPGGSLRLSCAASGFTFSSYAMSWVRQAPGKGLEWVSGISGSGGFTYYADSVKGRFTISRDNSKNTLYLQMNSLRAEDTAVYYCAKPPRGYNYGPFDYWGQGTLVTVSS
VL: SYVLTQPPSVSVAPGQTARITCGGNNIGSKSVHWYQQKPGQAPVLVVYDDSDRPSGIPERFSGSNSGNTATLTISRVEAGDEADYYCQVWDSSSDHVVFGGGTKLTVL
notes: Fully human monoclonal antibody with a human constant region of IgG4 isotype
In the case of B1, the fold change [1] is reported as 0.875 fold, the fold change [2] is reported as 0.805 fold and the fold change [3] is reported as 0.934 fold. For the same binder, the fold change [4] was 1.08 fold, the fold change [5] was 0.807 fold and the fold change [6] was 1.01 fold. The fold change [7] was 1.06 fold, the fold change [8] was 0.161 fold and the fold change [9] was 0.716 fold. It also gave a fold change [10] of 0.372 fold, a fold change [11] of 0.949 fold and a fold change [12] of 0.948 fold. For the same binder, the fold change [13] was 1.01 fold, the fold change [14] was 0.668 fold and the fold change [15] was 1.01 fold. The fold change [16] was 0.888 fold, the fold change [17] was 0.858 fold and the fold change [18] was 0.692 fold. The fold change [19] was 1.1 fold, the fold change [20] was 0.842 fold and the fold change [21] was 0.84 fold. For the same binder, the fold change [22] was 0.962 fold, the fold change [23] was 0.748 fold and the fold change [24] was 0.99 fold. The fold change [25] was 0.837 fold and the fold change [26] was 1.22 fold.
